Laboratory results reported in US20230272029A1, “CO-AGONISTS AT GLP-1 AND GIP RECEPTORS SUITABLE FOR ORAL DELIVERY” (Novo Nordisk A/S, priority 2020, published 2023).
Starred links: 1 amine or outer side, 2 acyl side, 3 side chain; linkers in the order of their positions; H or OH if unused. Non-standard residues stand in square brackets, D forms with d. Groups on a side chain read outwards from the residue. No end group written: not given here. *: point of attachment. C18 diacid = O=C(O)CCCCCCCCCCCCCCCCC(=O)*; γGlu = O=C(O)[C@H](CCC(=O)[*:2])N[*:1]; εLys = N[C@@H](CCCCN[*:1])C(=O)[*:2]; AEEA = NCCOCCOCC(=O)O; Aib = CC(C)(N)C(=O)O

T1: human GIP receptor (human, UniProt P48546 22-466)
T1 sequence (looked up): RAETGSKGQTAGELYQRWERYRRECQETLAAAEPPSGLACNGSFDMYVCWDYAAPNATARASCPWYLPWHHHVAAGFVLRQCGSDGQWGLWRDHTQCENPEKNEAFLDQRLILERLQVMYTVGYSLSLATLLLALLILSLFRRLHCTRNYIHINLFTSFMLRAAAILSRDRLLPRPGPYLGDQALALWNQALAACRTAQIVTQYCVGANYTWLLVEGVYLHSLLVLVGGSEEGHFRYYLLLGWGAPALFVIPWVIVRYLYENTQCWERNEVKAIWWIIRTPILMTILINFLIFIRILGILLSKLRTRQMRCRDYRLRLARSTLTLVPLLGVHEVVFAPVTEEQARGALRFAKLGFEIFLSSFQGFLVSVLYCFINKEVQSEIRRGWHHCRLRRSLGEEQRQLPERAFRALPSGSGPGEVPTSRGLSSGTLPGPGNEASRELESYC


Columns and labels:
human GIP receptor = target: T1, human GIP receptor; experiment: cell-based or functional assay
human GLP-1 receptor = human GLP-1 receptor (human, UniProt P43220 24-463); experiment: cell-based or functional assay

Binder | hGIPR, CRE Luc 0% HSA EC50 (pM) (human GIP receptor) | hGIPR, CRE Luc 1% HSA EC50 (pM) (human GIP receptor) | hGLP-1R, CRE Luc 0% HSA EC50 (pM) (human GLP-1 receptor) | hGLP-1R, CRE Luc 1% HSA EC50 (pM) (human GLP-1 receptor)
Y[Aib]EGTFTSDYSILLEEQAAREFINWLLAGGPSK([εLys-εLys-γGlu-C18 diacid])GAPPPS-OH (N-terminus assumed; SMILES CC[C@H](C)[C@H](NC(=O)[C@H](Cc1ccccc1)NC(=O)[C@H](CCC(=O)O)NC(=O)[C@H](CCCNC(=N)N)NC(=O)[C@H](C)NC(=O)[C@H](C)NC(=O)[C@H](CCC(N)=O)NC(=O)[C@H](CCC(=O)O)NC(=O)[C@H](CCC(=O)O)NC(=O)[C@H](CC(C)C)NC(=O)[C@H](CC(C)C)NC(=O)[C@@H](NC(=O)[C@H](CO)NC(=O)[C@H](Cc1ccc(O)cc1)NC(=O)[C@H](CC(=O)O)NC(=O)[C@H](CO)NC(=O)[C@@H](NC(=O)[C@H](Cc1ccccc1)NC(=O)[C@@H](NC(=O)CNC(=O)[C@H](CCC(=O)O)NC(=O)C(C)(C)NC(=O)[C@@H](N)Cc1ccc(O)cc1)[C@@H](C)O)[C@@H](C)O)[C@@H](C)CC)C(=O)N[C@@H](CC(N)=O)C(=O)N[C@@H](Cc1c[nH]c2ccccc12)C(=O)N[C@@H](CC(C)C)C(=O)N[C@@H](CC(C)C)C(=O)N[C@@H](C)C(=O)NCC(=O)NCC(=O)N1CCC[C@H]1C(=O)N[C@@H](CO)C(=O)N[C@@H](CCCCNC(=O)[C@@H](N)CCCCNC(=O)[C@@H](N)CCCCNC(=O)CC[C@H](NC(=O)CCCCCCCCCCCCCCCCC(=O)O)C(=O)O)C(=O)NCC(=O)N[C@@H](C)C(=O)N1CCC[C@H]1C(=O)N1CCC[C@H]1C(=O)N1CCC[C@H]1C(=O)N[C@@H](CO)C(=O)O) [Compound No. 44] | 5.7 pM | 365 pM | 4.2 pM | 241 pM
Y[Aib]EGTFTSDYSIILEK([εLys-εLys-γGlu-C18 diacid])QAAREFINWLLAGGPSSGAPPPS-OH (N-terminus assumed; SMILES CC[C@H](C)[C@H](NC(=O)[C@H](Cc1ccccc1)NC(=O)[C@H](CCC(=O)O)NC(=O)[C@H](CCCNC(=N)N)NC(=O)[C@H](C)NC(=O)[C@H](C)NC(=O)[C@H](CCC(N)=O)NC(=O)[C@H](CCCCNC(=O)[C@@H](N)CCCCNC(=O)[C@@H](N)CCCCNC(=O)CC[C@H](NC(=O)CCCCCCCCCCCCCCCCC(=O)O)C(=O)O)NC(=O)[C@H](CCC(=O)O)NC(=O)[C@H](CC(C)C)NC(=O)[C@@H](NC(=O)[C@@H](NC(=O)[C@H](CO)NC(=O)[C@H](Cc1ccc(O)cc1)NC(=O)[C@H](CC(=O)O)NC(=O)[C@H](CO)NC(=O)[C@@H](NC(=O)[C@H](Cc1ccccc1)NC(=O)[C@@H](NC(=O)CNC(=O)[C@H](CCC(=O)O)NC(=O)C(C)(C)NC(=O)[C@@H](N)Cc1ccc(O)cc1)[C@@H](C)O)[C@@H](C)O)[C@@H](C)CC)[C@@H](C)CC)C(=O)N[C@@H](CC(N)=O)C(=O)N[C@@H](Cc1c[nH]c2ccccc12)C(=O)N[C@@H](CC(C)C)C(=O)N[C@@H](CC(C)C)C(=O)N[C@@H](C)C(=O)NCC(=O)NCC(=O)N1CCC[C@H]1C(=O)N[C@@H](CO)C(=O)N[C@@H](CO)C(=O)NCC(=O)N[C@@H](C)C(=O)N1CCC[C@H]1C(=O)N1CCC[C@H]1C(=O)N1CCC[C@H]1C(=O)N[C@@H](CO)C(=O)O) [Compound No. 34] | 8.3 pM | 213 pM | 6 pM | 186 pM
Y[Aib]EGTFTSDYSILLEK([AEEA-AEEA-γGlu-C18 diacid])QAAREFINWLLAGGPSSGAPPPS-OH [Compound No. 35] | 5.2 pM | 303 pM | 3 pM | 413 pM
Y[Aib]EGTFTSDYSYYLEK([εLys-εLys-γGlu-C18 diacid])QAAQAFVNWLLAGGPSSGAPPPS-NH2 (N-terminus assumed; SMILES CC(C)C[C@H](NC(=O)[C@H](CC(C)C)NC(=O)[C@H](Cc1c[nH]c2ccccc12)NC(=O)[C@H](CC(N)=O)NC(=O)[C@@H](NC(=O)[C@H](Cc1ccccc1)NC(=O)[C@H](C)NC(=O)[C@H](CCC(N)=O)NC(=O)[C@H](C)NC(=O)[C@H](C)NC(=O)[C@H](CCC(N)=O)NC(=O)[C@H](CCCCNC(=O)[C@@H](N)CCCCNC(=O)[C@@H](N)CCCCNC(=O)CC[C@H](NC(=O)CCCCCCCCCCCCCCCCC(=O)O)C(=O)O)NC(=O)[C@H](CCC(=O)O)NC(=O)[C@H](CC(C)C)NC(=O)[C@H](Cc1ccc(O)cc1)NC(=O)[C@H](Cc1ccc(O)cc1)NC(=O)[C@H](CO)NC(=O)[C@H](Cc1ccc(O)cc1)NC(=O)[C@H](CC(=O)O)NC(=O)[C@H](CO)NC(=O)[C@@H](NC(=O)[C@H](Cc1ccccc1)NC(=O)[C@@H](NC(=O)CNC(=O)[C@H](CCC(=O)O)NC(=O)C(C)(C)NC(=O)[C@@H](N)Cc1ccc(O)cc1)[C@@H](C)O)[C@@H](C)O)C(C)C)C(=O)N[C@@H](C)C(=O)NCC(=O)NCC(=O)N1CCC[C@H]1C(=O)N[C@@H](CO)C(=O)N[C@@H](CO)C(=O)NCC(=O)N[C@@H](C)C(=O)N1CCC[C@H]1C(=O)N1CCC[C@H]1C(=O)N1CCC[C@H]1C(=O)N[C@@H](CO)C(N)=O) [Compound No. 4] | 8.5 pM | 294 pM | 6.6 pM | 484 pM
Y[Aib]EGTFTSDYSILLEEQAAREFIEWLLAGGPSK([εLys-εLys-γGlu-C18 diacid])GAPPPS-OH (N-terminus assumed; SMILES CC[C@H](C)[C@H](NC(=O)[C@H](Cc1ccccc1)NC(=O)[C@H](CCC(=O)O)NC(=O)[C@H](CCCNC(=N)N)NC(=O)[C@H](C)NC(=O)[C@H](C)NC(=O)[C@H](CCC(N)=O)NC(=O)[C@H](CCC(=O)O)NC(=O)[C@H](CCC(=O)O)NC(=O)[C@H](CC(C)C)NC(=O)[C@H](CC(C)C)NC(=O)[C@@H](NC(=O)[C@H](CO)NC(=O)[C@H](Cc1ccc(O)cc1)NC(=O)[C@H](CC(=O)O)NC(=O)[C@H](CO)NC(=O)[C@@H](NC(=O)[C@H](Cc1ccccc1)NC(=O)[C@@H](NC(=O)CNC(=O)[C@H](CCC(=O)O)NC(=O)C(C)(C)NC(=O)[C@@H](N)Cc1ccc(O)cc1)[C@@H](C)O)[C@@H](C)O)[C@@H](C)CC)C(=O)N[C@@H](CCC(=O)O)C(=O)N[C@@H](Cc1c[nH]c2ccccc12)C(=O)N[C@@H](CC(C)C)C(=O)N[C@@H](CC(C)C)C(=O)N[C@@H](C)C(=O)NCC(=O)NCC(=O)N1CCC[C@H]1C(=O)N[C@@H](CO)C(=O)N[C@@H](CCCCNC(=O)[C@@H](N)CCCCNC(=O)[C@@H](N)CCCCNC(=O)CC[C@H](NC(=O)CCCCCCCCCCCCCCCCC(=O)O)C(=O)O)C(=O)NCC(=O)N[C@@H](C)C(=O)N1CCC[C@H]1C(=O)N1CCC[C@H]1C(=O)N1CCC[C@H]1C(=O)N[C@@H](CO)C(=O)O) [Compound No. 43] | 5.6 pM | 444 pM | 4 pM | 360 pM
Y[Aib]EGTVTSDYSILLEK([εLys-εLys-γGlu-C18 diacid])QAAREFINWLLAGGPSSGAPPPS-OH (N-terminus assumed; SMILES CC[C@H](C)[C@H](NC(=O)[C@H](Cc1ccccc1)NC(=O)[C@H](CCC(=O)O)NC(=O)[C@H](CCCNC(=N)N)NC(=O)[C@H](C)NC(=O)[C@H](C)NC(=O)[C@H](CCC(N)=O)NC(=O)[C@H](CCCCNC(=O)[C@@H](N)CCCCNC(=O)[C@@H](N)CCCCNC(=O)CC[C@H](NC(=O)CCCCCCCCCCCCCCCCC(=O)O)C(=O)O)NC(=O)[C@H](CCC(=O)O)NC(=O)[C@H](CC(C)C)NC(=O)[C@H](CC(C)C)NC(=O)[C@@H](NC(=O)[C@H](CO)NC(=O)[C@H](Cc1ccc(O)cc1)NC(=O)[C@H](CC(=O)O)NC(=O)[C@H](CO)NC(=O)[C@@H](NC(=O)[C@@H](NC(=O)[C@@H](NC(=O)CNC(=O)[C@H](CCC(=O)O)NC(=O)C(C)(C)NC(=O)[C@@H](N)Cc1ccc(O)cc1)[C@@H](C)O)C(C)C)[C@@H](C)O)[C@@H](C)CC)C(=O)N[C@@H](CC(N)=O)C(=O)N[C@@H](Cc1c[nH]c2ccccc12)C(=O)N[C@@H](CC(C)C)C(=O)N[C@@H](CC(C)C)C(=O)N[C@@H](C)C(=O)NCC(=O)NCC(=O)N1CCC[C@H]1C(=O)N[C@@H](CO)C(=O)N[C@@H](CO)C(=O)NCC(=O)N[C@@H](C)C(=O)N1CCC[C@H]1C(=O)N1CCC[C@H]1C(=O)N1CCC[C@H]1C(=O)N[C@@H](CO)C(=O)O) [Compound No. 33] | 2.9 pM | 103 pM | 14.8 pM | 361 pM
